Measurements published in the nanobody polyreactivity screen of Harvey et al. (2022).

Experiment: yeast display, Sf9 membrane polyspecificity reagent, FACS + sequencing; frameworks hold sequencing errors
How it was run: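 Galactose-induced (36–48 hours) yeast carrying a synthetic nanobody display library were exposed to 10% biotinylated, detergent-solubilized Sf9 membrane reagent at 4 °C for 1 hour. FACS followed streptavidin microbead enrichment, using low and high (top ~1%) gates for expression (anti-HA) and reagent binding (streptavidin). Colony PCR, MiSeq 2 × 250 sequencing and CDR-length filtering followed. Labels for polyreactivity reflect the gate of origin.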

Sequence	polyreactivity (PSR sort gate)
QVQLVESGGGLVQAGGSLRLSCAASGRIFNGNAMGWYRQAPGNERELVAAISGSGGSTYYADSVKGRFTISRDNAKNTVYLQMNSLKPEDTAVYYCATKRVVHYNYWGQGTQVTVSS	high polyreactivity
QVQLVESGGGLVQAGGSLRLSCAASGRIFNGYAMGWYRQAPGKERELVAAINSSGGSTYYADSVKGRFTISRDNAKNTVFLQMNSLKPEDTAVYYCARVSYHYRTYDYWGQGTQVTVSS	high polyreactivity
QVQLVESGGGLVQAGGSLRLSCAASGRIFNGYAMGWYRQAPGKERELVAAISVSGGSTYYADSVKGRFTISRDNAKNTVYLQMNSLKPEDTAVYYCAARTSSYSFPYAYNYWGQGTQVTVSS	high polyreactivity
QVQLVESGGGLVQAGGSLRLSCAASGRIFNGYAMGWYRQAPGKERELVARISKRGGRTYYADSVKGRFTISRDNAKNTVYLQMNSLKPEDTAVYYCNAVPRVTRPSAVEEYDYWGQGTQVTVSS	high polyreactivity
QVQLVESGGGLVQAGGSLRLSCAASGRIFNKNAMGWYRQAPGKERELVAAITYSGGSTYYADSVKGRFTISRDNAKNTVYLQMNSLKPEDTAVYYCARDLYYVYSFAPYRYEYWGQGTQVTVSS	low polyreactivity
QVQLVESGGGLVQAGGSLRLSCAASGRIFNLYAMGWYRPAPGKERELVAAISWSGGSTYYADSVKGRFTITRDNAKNTVYLQMNSLKPEDTAVYYCKVVSTYKHTYDFDYWGQGTQVTLSS	high polyreactivity
QVQLVESGGGLVQAGGSLRLSCAASGRIFNMYAMGWYRQAPGKERELVAAISVSGTRTYYADSVKGRFTISRDNAKNTVYLQMNSLKPEDTAVYYCAADSYGGVWSEHMYYWGQGTQVTVSS	low polyreactivity
QVQLVESGGGLVQAGGSLRLSCAASGRIFNPYAMGWYRQAPGKERELVAAISWSGSTTYYADSVKGRFTISRDNAKNTVYLQMNSLKPEDTAVYYCAAEVVFFGWNYDYWGQGTQVTVSS	high polyreactivity
QVQLVESGGGLVQAGGSLRLSCAASGRIFNQSGMGWYRQAPGKERELVAAIRSGDSTNYADSVKGRFTISRDNAKNTVYLQMNSLKPEDTAVYYCAKDSDYPDYVSTKGDYDYWGQGTQVTVSS	low polyreactivity
QVQLVESGGGLVQAGGSLRLSCAASGRIFNQYGMGWYRQAPGKERELVAAIRSGDSTNYADSVKGRFTISRDNAKNTVYLPMNSLKPEDTAVYYCASDRPGDYAGYDYWGQGTQVTVSS	low polyreactivity
QVQLVESGGGLVQAGGSLRLSCAASGRIFNQYGMGWYRQAPGKERELVAAIRSGDSTNYADSVKGRFTISRDNAKNTVYLQMNSLKPEDTAVYYCARDFSPGSSDPKASISFDHWGQGTQVTVSS	low polyreactivity
QVQLVESGGGLVQAGGSLRLSCAASGRIFNQYGMGWYRQAPGKERELVAAIRSGDSTNYADSVKGRFTISRDNAKNTVYLQRNSLKPEDTAVYYSARDRPGDYAGYDYWGQGTQVTVSS	low polyreactivity
QVQLVESGGGLVQAGGSLRLSCAASGRIFNQYGMGWYSQARGKERELVAAIRSGDSTNYADSVKGRFTISRDNAKNTVYLQMNSLKPEDTAVDYCARDRPGDYAGYDYWGQGTQVTVSS	low polyreactivity
QVQLVESGGGLVQAGGSLRLSCAASGRIFNRNAMGWYRQPPGKERELGAAISRSGSRTYYADSVKWRFTISRDNAKNTVYLQMNSLKPEDTAVYYCAVSGYSPYLYRYGYWGQGTQETVSS	high polyreactivity
QVQLVESGGGLVQAGGSLRLSCAASGRIFNRYAMGWYRQAPGKERELVAAINSSGGSTYYADSVKGRFTISRDNAKNTVYLQMNSLKPEDTAVYYCARVSYHYRTYDYWGQGTQVTVSS	high polyreactivity
QVQLVESGGGLVQAGGSLRLSCAASGRIFNRYTMGWYRPAPGKEREFVAAISSRGGSTYYADSVKGRFTISRDNAKNTVDLQMYSLIPEDTAVYYCNKDYYWPLYAPYDSWGQGTRVTVSS	high polyreactivity
QVQLVESGGGLVQAGGSLRLSCAASGRIFNRYVMGWYRQAPGKERELVAAISVRGASTYYADSVKGRFTISRDNAKNTVYLQMNSLKPEDTAVYYCATAGYRLLDYWGEGTQVTVSS	high polyreactivity
QVQLVESGGGLVQAGGSLRLSCAASGRIFNSNAMGWYRQAPGKERELAAAISKRGGSTFYADSVKGRFTISRDNAKNTVYLQMNSLKPEDTAVYYCNARRLSTGFERYDYWGQGTQVTVSS	high polyreactivity
QVQLVESGGGLVQAGGSLRLSCAASGRIFNSYAMGWYRQAPGKERELVAAISWSGSSTYYADSVKGRFTISRDNAKNTVYLQMNSLKPEDTAVYYCAAGTRYFDYWGQGTQVTVSS	high polyreactivity
QVQLVESGGGLVQAGGSLRLSCAASGRIFNSYAMGWYRQAPGKERELVAAITRGGSTNYADSVKGRFTISRDNAKNTVYLHMNSLKPEDTAVYYCAAVTLFHYRYDYWGQGTQVTVSS	low polyreactivity
QVQLVESGGGLVQAGGSLRLSCAASGRIFNTYAMGWYRQAPGKERELVAAITSSGGSTYYADSVKGRFTISRDNEKNTVYLQLNSLKPEDTAVYYCAKPWYVRGGSSKYVYWGQGTQVTVSS	high polyreactivity
QVQLVESGGGLVQAGGSLRLSCAASGRIFNTYAMGWYRQAPGKERELVAVISSRGGSTYYADSVKGRFTISRDNAKNTVYLQMNSLKPEDTAVYYCAARGRGQPFVRYDYWGQGTQVTVSS	high polyreactivity

Sequence	polyreactivity (PSR sort gate)
QVQLVESGGGLVQAGGSLRLSCAASGRIFNWYAMGWYRQAPGKERELVARISSGDITSYADSVKGRFTISRDNAKNTVYLQMNRLKPEDTAVYYCDARQWFLYDYWGQGTQVTVSS	low polyreactivity
QVQLVESGGGLVQAGGSLRLSCAASGRIFNYYDMGWYRQPPGKERELVAAISWRGTSTRYADSVKGRFTISRDNAKNTVYLQMNSLKPEDTAVYYCADDDYARRFSFKYDYWGQGTQVTVSS	high polyreactivity
QVQLVESGGGLVQAGGSLRLSCAASGRIFNYYTMGWYRQAPGKEREFVAAISRSGGSTFYADSVKGRFTISRDNAKNTVYLQMNSLKPEDTAVYYCAARSYSRPDGGYVQLDYWGQGTQVTVSS	high polyreactivity
QVQLVESGGGLVQAGGSLRLSCAASGRIFPANAMGWYRQAPGKERELVAAIDYDGGSTYYADSVKGRFTISRDNAKNTVYLQMNSLKPEDTAVYYCAADFYDYEGSYYDYYWGQGTQVTVSS	high polyreactivity
QVQLVESGGGLVQAGGSLRLSCAASGRIFPAYAMGWYRQAPGKERELVASIRRGGITYADSVKGRFTISRDNAKNTVYLLMNSLKPEDTAVYYCNAYVNRATAGRYYSWGQGTQVTVSS	low polyreactivity
QVQLVESGGGLVQAGGSLRLSCAASGRIFPAYAMGWYRQAPWKERELVASIRRGGITYADSVKGRFTISRDNAKNTVYLQMNSLKPEDSAVYYCNADYRGWGYHMYYWGQGTQVTVSS	low polyreactivity
QVQLVESGGGLVQAGGSLRLSCAASGRIFPAYTMGWYRQAPGKERELVAAITWSGGSTYYADSVKGRFTISRDNAKNTVYLQMNSLKPEDTAVYYCAADKLYWYYGTEYGYWGQGTQVTVSS	low polyreactivity
QVQLVESGGGLVQAGGSLRLSCAASGRIFPAYVMGWYRQAPGKERELVATIDNGGGTYYADSVKGRFTISRDNAKNTVYLQMNSLKPEDPAVYYCARDRHVRWGLKMDYWGQGTQVTVSS	low polyreactivity
QVQLVESGGGLVQAGGSLRLSCAASGRIFPDYDMGWYRQAPGKERELVAAITQRGGSTYADSVKGRFTISRDNAKNTVYLQMNSLKPEDTSVYYCAREYYEGYEYWGQGTQVTVSS	low polyreactivity
QVQLVESGGGLVQAGGSLRLSCAASGRIFPFYAMGWYRQAPGKERELVAAISSSGGSTYYADSVKGRFTISRDHAKNTVYFQMNSLKPEDTAVYYCAATRNSDGMGYWGQGTQVTVSS	low polyreactivity
QVQLVESGGGLVQAGGSLRLSCAASGRIFPFYVMGWYRQAPGKERELVATINWSGGSTYYADSVKGRFTISRDNAKNTVYLQMNSLKPEDNAVYYCNAAPSDDYDYWGQGTQVTVSS	low polyreactivity
QVQLVESGGGLVQAGGSLRLSCAASGRIFPGNAMGWYRQAPGKERELVADITSGGSTNYADSVKGRFTISRDNAKNTVYLQMNSLKPEDTAVYYCAVRQIYQTSDHRLQYDYWGQGTQVTVSS	low polyreactivity
QVQLVESGGGLVQAGGSLRLSCAASGRIFPGYAMGWYRQAPGKERELVAAISERGGSTYYADSVKGRFTISRDNAKNTVYLQMNSLKPEDTAVYYCAAIWRGGYNYWGQGTQVTVSS	low polyreactivity
QVQLVESGGGLVQAGGSLRLSCAASGRIFPGYAMGWYRQAPGKERELVAAISGSGVRTYYADSVKGRFTISRDNAKNTVYLQMNSLKPEDTAVYYCAADSKIRTKLDYWGQGTQVTVSS	low polyreactivity
QVQLVESGGGLVQAGGSLRLSCAASGRIFPGYTMGWYRQAPGKEREFVAAISYSGGSTYADSVKGRFTISRDNAKNTVYLQMNSLKPEDTAVNYCAVVLQHWLDMYYWGQGTQVTVSS	low polyreactivity
QVQLVESGGGLVQAGGSLRLSCAASGRIFPGYTMGWYRQAPGKERELVAGISRSGGRTYYADSVKGRFTISRDNAKNTVYLQMNSLKPEDTAVYYCAADGYPGRRYTGMDYWGQGTQVTVSS	high polyreactivity
QVQLVESGGGLVQAGGSLRLSCAASGRIFPHNAMGWYRQAPGNERELVAAISSHGGSTYYAVSVKGRFTISRDNAKNTVYLQMNSLKPEDTAVYYCAKYRYFAGDGDYWGQGTQVTVSS	low polyreactivity
QVQLVESGGGLVQAGGSLRLSCAASGRIFPHYAIGWYRQAPGKERELVAAISTSGGSTYYADSVKGRFTISRDIAKNTVYLQLNCLKPEDTEVYYCAARGYQYGFYYLVIYDYWGQGTQVTVSS	low polyreactivity
QVQLVESGGGLVQAGGSLRLSCAASGRIFPKNTMGWYRQAPGKERELVAAINWNGGRTYYADSVKGRFTISRDNAKNTVYLQMNSLKPEDTAVYYCAKDGYWDFDYWGQGTQVTVSS	low polyreactivity
QVQLVESGGGLVQAGGSLRLSCAASGRIFPLYAMGWYRQAPGKERELVADISVTGTSTYYADSVKGRFTISRDNAKNTVYLQMNSLKPEDTAVYYCAADLWAYGPLWRWSRADYDYWGQGTQVTVSS	low polyreactivity
QVQLVESGGGLVQAGGSLRLSCAASGRIFPNYVMGWYRQAPGKERELVAAISRRGGRTYYADSVKGRFTISRDNAKNTVYLQMNSLKPEDTAVYYCARVPTRAEDVAGWTGMDYWGQGTQVTVSS	high polyreactivity
